{
  "source": "paper PMC12881670",
  "about": "“Investigation into ligand selectivity and bias at the formyl peptide receptor family” (The Journal of Pharmacology and Experimental Therapeutics, 2025)",
  "experiment_in_all_cases": "cell-based or functional assay",
  "key": {"[1]": {"molecular_target": "T1, FLAG-Hs_FPR1 C-terminally fused to Renilla Luciferase 8 (human, UniProt P21462 1-350)", "T1 sequence (looked up)": "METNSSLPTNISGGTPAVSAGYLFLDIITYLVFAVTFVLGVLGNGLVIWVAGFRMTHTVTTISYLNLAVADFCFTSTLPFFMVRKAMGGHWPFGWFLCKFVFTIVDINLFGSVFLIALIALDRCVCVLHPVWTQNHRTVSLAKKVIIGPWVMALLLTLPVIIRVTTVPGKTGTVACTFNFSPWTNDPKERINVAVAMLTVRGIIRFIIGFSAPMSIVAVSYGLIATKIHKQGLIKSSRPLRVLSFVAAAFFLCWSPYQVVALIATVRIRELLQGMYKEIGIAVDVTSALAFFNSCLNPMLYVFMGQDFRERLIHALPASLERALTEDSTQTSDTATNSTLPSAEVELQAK"}, "[2]": {"molecular_target": "T2, FLAG-Hs_FPR2 C-terminally fused to Renilla Luciferase 8 (human, UniProt P25090 1-351)", "T2 sequence (looked up)": "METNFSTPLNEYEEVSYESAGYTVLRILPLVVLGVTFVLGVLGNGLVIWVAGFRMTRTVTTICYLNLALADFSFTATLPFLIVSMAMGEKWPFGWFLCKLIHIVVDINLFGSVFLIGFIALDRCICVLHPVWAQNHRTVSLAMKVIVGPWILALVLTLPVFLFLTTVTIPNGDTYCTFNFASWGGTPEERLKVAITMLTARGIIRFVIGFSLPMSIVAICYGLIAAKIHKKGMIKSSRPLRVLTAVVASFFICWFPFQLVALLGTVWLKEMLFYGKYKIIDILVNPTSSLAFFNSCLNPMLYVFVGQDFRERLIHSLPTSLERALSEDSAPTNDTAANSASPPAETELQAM"}, "[3]": {"molecular_target": "T3, FLAG-Mm_Fpr1 C-terminally fused to Renilla Luciferase 8 (mouse, UniProt P33766 1-364)", "T3 sequence (looked up)": "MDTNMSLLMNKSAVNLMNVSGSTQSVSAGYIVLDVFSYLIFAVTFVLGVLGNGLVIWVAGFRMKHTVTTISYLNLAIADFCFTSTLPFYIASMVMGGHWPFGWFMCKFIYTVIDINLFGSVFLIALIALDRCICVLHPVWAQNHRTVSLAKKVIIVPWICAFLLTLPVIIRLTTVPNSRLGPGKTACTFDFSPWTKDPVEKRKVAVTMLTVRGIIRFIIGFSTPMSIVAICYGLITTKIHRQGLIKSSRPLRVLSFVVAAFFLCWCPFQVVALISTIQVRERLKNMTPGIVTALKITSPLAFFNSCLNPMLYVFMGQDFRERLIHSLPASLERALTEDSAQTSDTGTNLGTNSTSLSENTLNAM"}, "[4]": {"molecular_target": "T4, FLAG-Mm_Fpr2 C-terminally fused to Renilla Luciferase 8 (mouse, UniProt O88536 1-351)", "T4 sequence (looked up)": "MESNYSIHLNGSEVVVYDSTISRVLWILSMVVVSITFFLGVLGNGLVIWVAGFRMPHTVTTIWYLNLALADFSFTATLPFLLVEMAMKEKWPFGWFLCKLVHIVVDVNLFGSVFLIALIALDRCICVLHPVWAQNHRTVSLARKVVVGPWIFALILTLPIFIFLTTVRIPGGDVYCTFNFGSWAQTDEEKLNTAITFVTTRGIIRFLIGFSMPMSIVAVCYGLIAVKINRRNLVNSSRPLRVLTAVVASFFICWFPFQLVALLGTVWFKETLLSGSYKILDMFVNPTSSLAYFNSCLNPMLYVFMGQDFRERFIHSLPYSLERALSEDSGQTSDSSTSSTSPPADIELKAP"}, "[5]": {"molecular_target": "T5, FLAG-tagged mouse Fpr2 (Mm_Fpr2) (mouse, UniProt O88536 1-351)", "T5 sequence (looked up)": "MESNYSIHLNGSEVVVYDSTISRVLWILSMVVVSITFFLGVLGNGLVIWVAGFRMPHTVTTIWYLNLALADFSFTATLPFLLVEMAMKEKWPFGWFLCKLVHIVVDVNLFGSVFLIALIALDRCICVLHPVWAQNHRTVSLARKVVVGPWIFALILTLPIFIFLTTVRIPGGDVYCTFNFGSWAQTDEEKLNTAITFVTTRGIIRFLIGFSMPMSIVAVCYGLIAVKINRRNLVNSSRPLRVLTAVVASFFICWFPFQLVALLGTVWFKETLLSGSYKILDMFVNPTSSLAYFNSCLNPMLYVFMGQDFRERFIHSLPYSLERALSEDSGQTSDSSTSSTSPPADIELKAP"}, "[6]": {"molecular_target": "T6, FLAG-tagged human FPR1 (Hs_FPR1) (human, UniProt P21462 1-350)", "T6 sequence (looked up)": "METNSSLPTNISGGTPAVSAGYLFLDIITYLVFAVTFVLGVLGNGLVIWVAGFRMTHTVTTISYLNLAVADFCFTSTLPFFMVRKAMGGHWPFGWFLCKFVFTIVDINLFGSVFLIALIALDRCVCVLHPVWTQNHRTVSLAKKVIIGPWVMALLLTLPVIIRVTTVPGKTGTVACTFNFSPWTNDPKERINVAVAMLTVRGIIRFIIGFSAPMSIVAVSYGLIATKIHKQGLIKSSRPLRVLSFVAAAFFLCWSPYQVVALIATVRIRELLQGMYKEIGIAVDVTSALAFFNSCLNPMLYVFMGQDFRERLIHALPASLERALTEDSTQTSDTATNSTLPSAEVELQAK"}, "[7]": {"molecular_target": "T7, FLAG-tagged human FPR2 (Hs_FPR2) (human, UniProt P25090 1-351)", "T7 sequence (looked up)": "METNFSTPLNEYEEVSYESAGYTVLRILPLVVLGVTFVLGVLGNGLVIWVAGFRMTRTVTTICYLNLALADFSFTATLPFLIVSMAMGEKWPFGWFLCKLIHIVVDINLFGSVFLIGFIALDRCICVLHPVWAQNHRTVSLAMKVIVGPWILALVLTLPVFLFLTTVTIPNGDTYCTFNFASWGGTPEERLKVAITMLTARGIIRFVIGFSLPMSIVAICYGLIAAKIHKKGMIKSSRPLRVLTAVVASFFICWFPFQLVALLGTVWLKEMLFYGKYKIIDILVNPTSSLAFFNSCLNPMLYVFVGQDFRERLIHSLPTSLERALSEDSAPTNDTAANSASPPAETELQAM"}},
  "note": "Where no end group is shown, it is not given here. [ ]: non-standard residue; d: D form.",
  "data": [
    {"binder": "WKYMV[dM] (the last residue is the D form; the bought peptide is probably also an amide (surmise); source: bought: Tocris)", "note": "[WKYMVm]", "values": [
      {"measurement": "BRET of receptor-RLuc8 with Venus-mGsi: Emax (% of 1 μM WKYMVm)", "setting": "[1]", "result": 112, "unit": "%"},
      {"measurement": "BRET of receptor-RLuc8 with Venus-mGsi: Emax (% of 1 μM WKYMVm)", "setting": "[2]", "result": 100, "unit": "%"},
      {"measurement": "BRET of receptor-RLuc8 with Venus-mGsi: Log EC50 (M)", "setting": "[2]", "result": -8.11, "unit": "log M"},
      {"measurement": "BRET of receptor-RLuc8 with Venus-mGsi: Emax (% of 1 μM WKYMVm)", "setting": "[3]", "result": 109, "unit": "%"},
      {"measurement": "BRET of receptor-RLuc8 with Venus-mGsi: Log EC50 (M)", "setting": "[3]", "result": -6.69, "unit": "log M"},
      {"measurement": "BRET of receptor-RLuc8 with Venus-mGsi: Emax (% of 1 μM WKYMVm)", "setting": "[4]", "result": 103, "unit": "%"},
      {"measurement": "BRET of receptor-RLuc8 with Venus-mGsi: Log EC50 (M)", "setting": "[4]", "result": -7.51, "unit": "log M"},
      {"measurement": "ERK1/2 phosphorylation (Western blot): Emax (% of 1 μM WKYMVm)", "setting": "[5]", "result": 118, "unit": "%"},
      {"measurement": "ERK1/2 phosphorylation (Western blot): Log EC50 (M)", "setting": "[5]", "result": -9.06, "unit": "log M"},
      {"measurement": "ERK1/2 phosphorylation (Western blot): Emax (% of 1 μM WKYMVm)", "setting": "[6]", "result": 104, "unit": "%"},
      {"measurement": "ERK1/2 phosphorylation (Western blot): Log EC50 (M)", "setting": "[6]", "result": -9.1, "unit": "log M"},
      {"measurement": "ERK1/2 phosphorylation (Western blot): Emax (% of 1 μM WKYMVm)", "setting": "[7]", "result": 93.8, "unit": "%"}
    ]}
  ]
}
